± gives the uncertainty stated by the source.
Assay: protein stability index of a GFP-peptide fusion (yeast GPS) (PSI 1-4); higher = more stable; sorted into four equal gates, so the index is relative within each strain
In short: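 For each peptide, the protein stability index sums the read frequency in every gate after multiplying it by the gate number. Read frequencies came from plasmids that were PCR-amplified from each gate and Illumina-sequenced, with reads assigned to strains by barcodes. The gates were four equal bins of GFP/Cherry fluorescence ratio applied to mid-log yeast in leucine-free medium carrying a pooled library of tiled 17-residue yeast protein peptides fused downstream of GFP on a Cherry-expressing plasmid.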

Row | Sequence | protein stability index (doa10∆) | protein stability index (pdr5∆) | protein stability index (san1∆) | protein stability index (ubr1∆)
1 | KFKRHHSDRYHRVAENW [RPL32] | 3 ± 0.072 | 3.21 ± 0.065 | 3.2 ± 0.05 | 3.07 ± 0.045
2 | KFLQEFINLLLNCCGSV [IRR1] | 2.07 ± 0.11 | 1.74 ± 0.091 | 1.57 ± 0.11 | 1.8 ± 0.062
3 | KFPPPTPLLENISISTS [BRR2] | 1.83 ± 0.054 | 1.84 ± 0.056 | 1.63 ± 0.094 | 1.68 ± 0.045
4 | KFTTVLAKILARSIDVE [ECM29] |  | 1.53 ± 0.2 | 2.94 ± 0.14 | 3.01 ± 0.22
5 | KGAGLSMGTMICGYTRK [PRE2] | 1.64 ± 0.16 | 1.27 ± 0.17 |  | 1.11 ± 0.17
6 | KGGKGLGKGGAKRHRKI [HHF1] | 3.7 ± 0.22 | 3.59 ± 0.19 | 3.65 ± 0.067 | 3.59 ± 0.053
7 | KGLKENDVAVEKTGKSA [BRR2] | 3.03 ± 0.15 |  | 2.73 ± 0.21 | 
8 | KGPAIDELSSKELVECH [NNF1] | 3.04 ± 0.055 | 3.13 ± 0.068 | 2.78 ± 0.077 | 2.82 ± 0.047
9 | KGRAYKRLLYTRRFVNV [RPS30A] | 2.38 ± 0.058 | 2.12 ± 0.064 | 2.81 ± 0.069 | 2.76 ± 0.039
10 | KGRNNESNNKKYPIFTG [YDL088C/ASM4] | 2.87 ± 0.064 | 2.95 ± 0.063 | 2.67 ± 0.059 | 2.9 ± 0.049
11 | KGTEASNDIIDKPYLLR [YDL116W/NUP84] | 3.33 ± 0.09 | 3.23 ± 0.078 | 3.34 ± 0.1 | 2.76 ± 0.11
12 | KIAGIEGHLAEIRAKEY [SRB2] | 3.36 ± 0.12 | 3.41 ± 0.097 | 3.4 ± 0.071 | 3.31 ± 0.058
13 | KIALMNIPKPLNSYHIK [RGR1] | 1.65 ± 0.033 | 1.81 ± 0.028 | 1.69 ± 0.041 | 1.83 ± 0.022
14 | KIAYRGVKDCQEGLITT [SSN2] | 2.08 ± 0.23 |  | 2.91 ± 0.22 | 2.7 ± 0.22
15 | KIDLLSGQFYFRNPTPL [RGR1] | 2.67 ± 0.22 | 3.03 ± 0.15 | 3.12 ± 0.076 | 2.82 ± 0.074
16 | KIEGVATPQDAQFYLGK [RPL33A] | 2.78 ± 0.086 | 3.12 ± 0.07 | 3.3 ± 0.063 | 3.25 ± 0.083
17 | KIKDVQQQIESNEEQRN [SMC3] | 3.22 ± 0.091 | 3.17 ± 0.082 | 3.18 ± 0.076 | 2.85 ± 0.11
18 | KIKQYERLRFYKDTFTL [RRI1] | 2.78 ± 0.056 | 2.54 ± 0.055 | 2.4 ± 0.049 | 2.81 ± 0.039
19 | KILGKGRIPNVPVIVKA [RPL28] | 2.35 ± 0.065 | 1.87 ± 0.081 | 2.37 ± 0.085 | 3.24 ± 0.054
20 | KILITYGSSPKLLATST [SRB8] | 1.22 ± 0.039 | 1.33 ± 0.039 | 1.48 ± 0.091 | 1.53 ± 0.042
21 | KILMYQYNIPPEREVLV [RRP6] | 1.78 ± 0.075 | 2.04 ± 0.077 | 1.77 ± 0.2 | 1.72 ± 0.087
22 | KILNIIKCSQSSHLSDN [POP5] | 1.97 ± 0.05 | 2.77 ± 0.069 | 2.28 ± 0.065 | 2.09 ± 0.053
23 | KILNLEKPLILADYIVE [NUT1] | 1.58 ± 0.1 | 1.56 ± 0.061 | 1.22 ± 0.18 | 1.3 ± 0.07
24 | KIMQSISNKDVIFKIRD [SRB4] | 3.34 ± 0.1 | 2.91 ± 0.15 | 3.22 ± 0.11 | 2.72 ± 0.12
25 | KIMVAEWYLSHLCSGIL [SRB8] | 1.35 ± 0.056 | 1.39 ± 0.057 | 1.24 ± 0.077 | 1.47 ± 0.049
26 | KINDESSIDKKSSILTV [YML103C/NUP188] | 2.35 ± 0.062 | 2.68 ± 0.067 | 2.56 ± 0.059 | 2.52 ± 0.056
27 | KINRPPVSVSRIARALK [RPL18A] |  | 2.06 ± 0.1 | 1.97 ± 0.13 | 2.66 ± 0.18

Row | Sequence | protein stability index (doa10∆) | protein stability index (pdr5∆) | protein stability index (san1∆) | protein stability index (ubr1∆)
28 | KINTRGAEDPKVLINDQ [SWI1] | 3.02 ± 0.2 | 3.34 ± 0.13 | 3.26 ± 0.14 | 3.11 ± 0.054
29 | KIQFILEQMELSILKGD [RPN5] |  | 2.57 ± 0.23 | 2.35 ± 0.29 | 2.65 ± 0.19
30 | KISDDELERILKELSNL [RPB4] | 3.16 ± 0.13 | 3.17 ± 0.091 |  | 3 ± 0.1
31 | KIVFILDSDSENDLSFA [RRI2] | 2.52 ± 0.059 | 2.61 ± 0.059 | 2.09 ± 0.12 | 2.59 ± 0.047
32 | KIYNFGELLHHPIMETI [RPN9] | 2.58 ± 0.068 | 2.6 ± 0.074 | 1.84 ± 0.11 | 2.91 ± 0.11
33 | KIYRVGKGDDEANGATS [RPL3] | 3.45 ± 0.071 | 3.6 ± 0.1 | 3.67 ± 0.045 | 3.22 ± 0.11
34 | KKAKLVLIANDVDPIEL [RPL8A] | 3.17 ± 0.15 | 2.81 ± 0.068 | 3.09 ± 0.07 | 2.83 ± 0.072
35 | KKALKVRTSATFRLPKT [RPL25] | 2.87 ± 0.13 |  |  | 3.18 ± 0.13
36 | KKEATKPAFSFGINTNT [YLR335W/NUP2] | 2.99 ± 0.062 | 3.02 ± 0.086 | 3.26 ± 0.038 | 3.35 ± 0.056
37 | KKFATVPTGGASSAAAG [RPP2B] | 3.17 ± 0.13 | 3.21 ± 0.14 | 2.89 ± 0.079 | 3.06 ± 0.067
38 | KKHGKTDYFLPKNYSLH [YJL039C/NUP192] | 2.76 ± 0.057 | 2.63 ± 0.069 | 2.71 ± 0.049 | 2.35 ± 0.049
39 | KKIENTMLENITLRGVE [RPO21] | 3.38 ± 0.12 | 2.79 ± 0.12 | 2.98 ± 0.07 | 3.09 ± 0.077
40 | KKKRKKKNKSAIDGIFG [RMP1] | 2.47 ± 0.045 | 2.83 ± 0.045 | 2.81 ± 0.042 | 3.03 ± 0.038
41 | KKKTKKELELERKERED [SWI1] | 3.62 ± 0.12 | 3.37 ± 0.073 | 3.51 ± 0.051 | 3.31 ± 0.043
42 | KKLESQESLVKLFTTNE [RPN5] | 2.94 ± 0.11 | 3.12 ± 0.13 | 3.22 ± 0.081 | 2.88 ± 0.12
43 | KKLLEVHDIFSKIFNES [CDC53] | 2.84 ± 0.072 | 2.71 ± 0.059 | 2.77 ± 0.057 | 2.66 ± 0.05
44 | KKMMNTSDSESTLYKYL [SWI3] | 2.94 ± 0.079 | 2.87 ± 0.075 | 2.79 ± 0.083 | 2.75 ± 0.05
45 | KKNDMNTSAKNKNGENK [SIR4] | 2.59 ± 0.06 | 2.69 ± 0.061 | 3.03 ± 0.054 | 3.12 ± 0.066
46 | KKNLGRLTRLWIKNEQE [PRP8] | 1.72 ± 0.063 | 1.89 ± 0.063 | 1.25 ± 0.19 | 2.5 ± 0.25
47 | KKNNLEFGTYGKYVIAG [RPN14] | 2.51 ± 0.088 | 2.09 ± 0.069 | 1.79 ± 0.14 | 2.1 ± 0.065
48 | KKRESGVEEEEELKDSE [SNF2] | 3.38 ± 0.28 |  | 3.3 ± 0.12 | 
49 | KKRIRLPSEERIQKIIS [YIL149C/MLP2] | 2.66 ± 0.074 | 2.49 ± 0.062 | 2.71 ± 0.081 | 2.72 ± 0.04
50 | KKTVAGGAYTVSTAAAA [RPL43A] | 2.43 ± 0.068 | 2.46 ± 0.065 | 2.15 ± 0.074 | 2.15 ± 0.05
51 | KKVKSASKKSGGDVVKF [SMC4] | 3.09 ± 0.15 | 3.68 ± 0.15 | 2.89 ± 0.21 | 3.12 ± 0.16
52 | KKVMPAIVVRQAKSWRR [RPL23A] | 2.84 ± 0.14 | 2.85 ± 0.088 | 2.64 ± 0.16 | 2.99 ± 0.063
53 | KKVSRRNARAARAAKIA [RPL13B] | 3.05 ± 0.084 | 2.65 ± 0.11 | 2.63 ± 0.18 | 2.69 ± 0.045
54 | KKVTAFVPNDGCLNFVD [RPS23A] | 2.88 ± 0.054 | 3.17 ± 0.046 | 3.11 ± 0.032 | 2.85 ± 0.035

Reference: the supplement of paper PMC9732359
